Data on 58 variants can be found in the supplement of paper PMC10201428.

The labels stand for the following.
B1: library; a variant is named by its letters at N, in order (parent)
chain: AATGTTGTTGATGCAACCATAAAGTGATATTTAATAATTATTTATAATCAGCAACTTAACCACAAAACAACCATATATTGATATNTCACAAAACAACCATAANTTGATATTTTTGTGAATCGAGTATTTCAGCAAAACTACTGCAGTAAGAA

Variants of B1 are the subject of data set [1]. In words: relative integration efficiency (T-LR orientation) vs wild-type transposon end (log2 (normalized fold change)); transposon end mutated: left end; higher = more efficient transposition. Conditions: with VchCAST RNA-guided transposition machinery (E. coli BL21(DE3) host, lacZ target). Summed up:
(§1)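 Each barcoded pool, 1549 left-end or 1849 right-end transposon variants in a pUC57 mini-transposon donor, went into E. coli BL21(DE3) with a T7-driven effector plasmid (CRISPR array, tniQ-cas8-cas7-cas6, tnsA-tnsB-tnsC). Plates contained 0.1 mM IPTG and were held at 37°C for 18 h. Input plasmids and genomic integration junctions were PCR-amplified and read by Illumina sequencing, with two biological output replicates and four reference barcodes. Relative integration efficiency is the fold change of output over input barcode abundance, normalised to the reference barcodes and log-transformed.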

The variants in data set [2] derive from B1. In words: relative integration efficiency (T-RL orientation) vs wild-type transposon end (log2 (normalized fold change)); transposon end mutated: left end; higher = more efficient transposition. Conditions: with VchCAST RNA-guided transposition machinery (E. coli BL21(DE3) host, lacZ target). In short, it runs like this: as §1

± gives the standard deviation of the averaged measurements. Bounds are passed on as bounds.

CG T20A A21T A22T A23T: the results for the “relative integration efficiency (log2)” value in data set [1] and in data set [2] were -0.732 ± 0.16 and -0.758 ± 0.34, respectively.

In the case of CG G26T A27C T28G A29C, the “relative integration efficiency (log2)” value in data set [1] was -1.37 ± 0.4; in data set [2], -1.9 ± 1.2.

Turning to CG T12A G13A A77C T86G, the “relative integration efficiency (log2)” value in data set [1] was -0.125 ± 0.28; in data set [2], -0.319 ± 0.14.

In the case of CG T3C, the “relative integration efficiency (log2)” value in data set [1] was 0.718 ± 0.1; in data set [2], 0.297 ± 0.0045.

On to CG T3G, for which the “relative integration efficiency (log2)” value in data set [1] is 0.394 ± 0.5; in data set [2], 0.0915 ± 0.044.

In the case of CG T3A, the results for the “relative integration efficiency (log2)” value in data set [1] and in data set [2] were -0.175 ± 0.58 and -0.148 ± 0.071, respectively.

In the case of CG T38A T39A A40T T41A, the “relative integration efficiency (log2)” value in data set [1] is -0.9 ± 1.3; in data set [2], 0.168 ± 0.1.

As to CG T43C, the “relative integration efficiency (log2)” value is -0.00723 ± 0.047 in data set [1] and -0.241 ± 0.11 in data set [2].

CG T43A: the “relative integration efficiency (log2)” value in data set [1] worked out at 0.341 ± 0.042; in data set [2], 0.0102 ± 0.024.

For the variant CG T43G, the results for the “relative integration efficiency (log2)” value in data set [1] and in data set [2] were -0.00931 ± 0.27 and -0.28 ± 0.043, respectively.

With CG T32G A33C A34C T35G, the “relative integration efficiency (log2)” value was 0.074 ± 0.25 in data set [1] and -0.364 ± 0.079 in data set [2].

CG T20A A21T: the “relative integration efficiency (log2)” value in data set [1] was -0.406 ± 0.45; in data set [2], -0.483 ± 0.31.

CG T42G T43G A44C T45G: the “relative integration efficiency (log2)” value in data set [1] was 0.391 ± 0.16; in data set [2], -0.108 ± 0.12.

On to CG T32A A33T, for which the “relative integration efficiency (log2)” value in data set [1] is 0.105 ± 0.075; in data set [2], -0.145 ± 0.16.

As to CG T41G T42G T43G A44C, the “relative integration efficiency (log2)” value in data set [1] was 0.146 ± 0.074; in data set [2], -0.195 ± 0.099.

Turning to CG G115C T116A, the “relative integration efficiency (log2)” value in data set [1] was 0.199 ± 0.12; in data set [2], -0.00924 ± 0.092.

As to CG T39G A40C, the figures for the “relative integration efficiency (log2)” value in data set [1] and in data set [2] were -0.0204 ± 0.26 and -0.535 ± 0.23, respectively.

For the variant CG T41A T42A T43A A44T, the “relative integration efficiency (log2)” value stood at 0.249 ± 0.14 in data set [1] and 0.195 ± 0.17 in data set [2].

Take CG T28A A29T: the “relative integration efficiency (log2)” value is -0.0554 ± 0.23 in data set [1] and -0.309 ± 0.44 in data set [2].

Regarding CG G117T A118C A119C T120G, the “relative integration efficiency (log2)” value in data set [1] was 0.0571 ± 0.28; in data set [2] it was 0.0586 ± 0.085.

As for CG T8C, the “relative integration efficiency (log2)” value was -0.996 ± 0.69 in data set [1] and -1.39 ± 0.56 in data set [2].

As for CG T8A, the “relative integration efficiency (log2)” value in data set [1] is -0.491 ± 0.035; in data set [2], -0.209 ± 0.19.

Turning to CG T8G, the “relative integration efficiency (log2)” value in data set [1] is less than -10; in data set [2] it was -6.68 ± 0.98.

For the variant CG T43A A44T T45A A46T, the “relative integration efficiency (log2)” value in data set [1] was -1.06 ± 1.4; in data set [2] it was 0.138 ± 0.031.

Regarding CG G117T A118C A119C T120G C121A G122T A123C G124T T125G, the “relative integration efficiency (log2)” value in data set [1] is 0.16 ± 0.029; in data set [2], 0.0955 ± 0.074.

CG T42G T43G: the “relative integration efficiency (log2)” value is 0.178 ± 0.27 in data set [1] and -0.123 ± 0.14 in data set [2].

Consider CG G115C T116A G117C A118T, for which the “relative integration efficiency (log2)” value was 0.334 ± 0.11 in data set [1] and -0.12 ± 0.028 in data set [2].

Consider CG T5A T6A, for which the “relative integration efficiency (log2)” value in data set [1] is less than -10; in data set [2], -6.46 ± 0.12.

Take CG T12A G13A T31C T32A A77C T86G: the entries for the “relative integration efficiency (log2)” value in data set [1] and in data set [2] were -0.861 ± 0.36 and -0.573 ± 0.15, respectively.

Regarding CG T8A T9A G10C A11T, the “relative integration efficiency (log2)” value in data set [1] is less than -10; in data set [2] it was -6.573 ± 0.021.

As to CG G26T, the “relative integration efficiency (log2)” value in data set [1] was -0.577 ± 1.1; in data set [2], -0.329 ± 0.41.

Turning to CG G26C, the results for the “relative integration efficiency (log2)” value in data set [1] and in data set [2] were -1.96 ± 1.7 and -1.36 ± 0.65, respectively.

In the case of CG G26A, the “relative integration efficiency (log2)” value in data set [1] is -0.184 ± 0.65; in data set [2], -0.427 ± 0.47.

With CG T41C, the “relative integration efficiency (log2)” value was 1.29 ± 0.16 in data set [1] and 0.304 ± 0.26 in data set [2].

For CG T41G, the “relative integration efficiency (log2)” value is 0.12 ± 0.36 in data set [1] and -0.128 ± 0.018 in data set [2].

For the variant CG T41A, the “relative integration efficiency (log2)” value was -0.651 ± 0.73 in data set [1] and 0.0865 ± 0.047 in data set [2].

In the case of CG T9A, the figures for the “relative integration efficiency (log2)” value in data set [1] and in data set [2] were -0.191 ± 0.61 and -0.00405 ± 0.092, respectively.

As to CG T9C, the “relative integration efficiency (log2)” value in data set [1] came to 0.146 ± 0.38; in data set [2] it was 0.242 ± 0.0041.

Regarding CG T9G, the “relative integration efficiency (log2)” value in data set [1] came out at 0.416 ± 0.19; in data set [2], 0.28 ± 0.09.

Turning to CG T48A C49A A50T C52T A53G C55G T56C T57G A59G C60T C61A A66C A67C, the “relative integration efficiency (log2)” value in data set [1] was 0.607 ± 0.81; in data set [2], -5.05 ± 1.9.

On to CG T41A T42A A44G A46G T48G A50G G51A C52G A53T C55A T56C T57A A59C, for which the “relative integration efficiency (log2)” value in data set [1] is 0.615 ± 1; in data set [2], -4.14 ± 1.1.

Regarding CG T25G G26T A27C T28G, the entries for the “relative integration efficiency (log2)” value in data set [1] and in data set [2] were -2.73 ± 1.1 and -2.55 ± 0.99, respectively.

As to AG T31G T32G A33C T86G C87A T111G T112G T113G, the entries for the “relative integration efficiency (log2)” value in data set [1] and in data set [2] were -1.26 ± 0.48 and -1.07 ± 0.49, respectively.

Take CG T5A: the “relative integration efficiency (log2)” value in data set [1] was -0.149 ± 0.06; in data set [2] it was -0.22 ± 0.057.

On to CG T5C, for which the “relative integration efficiency (log2)” value in data set [1] was -0.291 ± 0.23; in data set [2], -0.319 ± 0.008.

Take CG T5G: the “relative integration efficiency (log2)” value in data set [1] was 0.0272 ± 0.098; in data set [2], 0.0254 ± 0.14.

Consider CG T28G, for which the “relative integration efficiency (log2)” value in data set [1] was -0.845 ± 0.19; in data set [2], -0.536 ± 0.28.

As to CG T28C, the “relative integration efficiency (log2)” value in data set [1] was -0.0735 ± 0.44; in data set [2], -0.273 ± 0.15.

Regarding CG T28A, the results for the “relative integration efficiency (log2)” value in data set [1] and in data set [2] were -0.399 ± 0.64 and -0.37 ± 0.28, respectively.

For the variant AG T31G T111G, the “relative integration efficiency (log2)” value was -0.732 ± 0.38 in data set [1] and -0.99 ± 0.44 in data set [2].

For the variant CG T9G G10T, the figures for the “relative integration efficiency (log2)” value in data set [1] and in data set [2] were -0.0361 ± 0.31 and 0.0751 ± 0.11, respectively.

Regarding CG G80C A81T T82A A83T, the results for the “relative integration efficiency (log2)” value in data set [1] and in data set [2] were -2 ± 1.1 and -1.88 ± 0.77, respectively.

For the variant CG T12A G13A T30A T31C T32A, the “relative integration efficiency (log2)” value in data set [1] was -1.04 ± 0.35; in data set [2], -0.578 ± 0.26.

In the case of CG T43A A44T, the “relative integration efficiency (log2)” value in data set [1] was 0.162 ± 0.35; in data set [2] it was -0.0354 ± 0.012.

As for CG T43G A44C A46G T48A C49G A50C C52A A53G T56A T57C A58C, the “relative integration efficiency (log2)” value in data set [1] was -2.81 ± 2.2; in data set [2], -2.55 ± 1.

With CG T12A G13A T32A A77C T86G, the “relative integration efficiency (log2)” value in data set [1] is 0.117 ± 0.45; in data set [2], -0.0481 ± 0.05.

In the case of CG T38G T39G A40C T41G, the “relative integration efficiency (log2)” value in data set [1] is 0.212 ± 0.16; in data set [2], -0.193 ± 0.16.

For CG G115T T116G, the figures for the “relative integration efficiency (log2)” value in data set [1] and in data set [2] were 0.0607 ± 0.61 and 0.243 ± 0.033, respectively.
